Measured values: the supplement of paper PMC9112550, “Optimization of the antimicrobial peptide Bac7 by deep mutational scanning” (BMC Biology, 2022)

Tested on: Escherichia coli TOP10
Assay: shrunken log2 fold change of peptide-encoding DNA abundance (4.5 h post-induction vs induction); higher = less antimicrobial activity (less host growth inhibition)
Settings: time post-induction: 4.5 h; library: site-saturation at positions 5, 18, 19, 20
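Also: peptides expressed intracellularly from a pBAD plasmid library in pooled LB shake-flask culture, induced with 0.3% L-arabinose, DNA abundance read by NGS, three biological replicates, DESeq2 with apeglm shrinkage.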

In the case of RRIRKRPPRLPRPRPRPECMPRP, the “shrunken log2 fold change” value is reported as 1.58.

With RRIRKRPPRLPRPRPRPECTPRP the “shrunken log2 fold change” value was 3.42.

In the case of RRIRKRPPRLPRPRPRPEELPRP, the “shrunken log2 fold change” value is reported as 2.77.

In the case of RRIRKRPPRLPRPRPRPEEQPRP, the “shrunken log2 fold change” value is reported as 3.17.

For RRIRKRPPRLPRPRPRPEFAPRP, the “shrunken log2 fold change” value was 1.03.

For RRIRKRPPRLPRPRPRPEFVPRP, the “shrunken log2 fold change” value was 0.587.

With RRIRKRPPRLPRPRPRPEGLPRP the “shrunken log2 fold change” value was 1.05.

With RRIRKRPPRLPRPRPRPEGSPRP the “shrunken log2 fold change” value was 0.102.

With RRIRKRPPRLPRPRPRPEHLPRP the “shrunken log2 fold change” value was 0.132.

With RRIRKRPPRLPRPRPRPEHSPRP the “shrunken log2 fold change” value was 0.00628.

RRIRKRPPRLPRPRPRPEHWPRP was tested, and the “shrunken log2 fold change” value was 0.428.

In the case of RRIRKRPPRLPRPRPRPEIAPRP, the “shrunken log2 fold change” value is reported as 2.48.

For RRIRKRPPRLPRPRPRPEICPRP, the “shrunken log2 fold change” value was 0.661.

In the case of RRIRKRPPRLPRPRPRPEIHPRP, the “shrunken log2 fold change” value is reported as 0.27.

With RRIRKRPPRLPRPRPRPEKGPRP the “shrunken log2 fold change” value was -0.00382.

In the case of RRIRKRPPRLPRPRPRPEKSPRP, the “shrunken log2 fold change” value is reported as 0.0144.

With RRIRKRPPRLPRPRPRPELDPRP the “shrunken log2 fold change” value was 0.121.

RRIRKRPPRLPRPRPRPEMYPRP was tested, and the “shrunken log2 fold change” value was 0.214.

For RRIRKRPPRLPRPRPRPEPHPRP, the “shrunken log2 fold change” value was 0.829.

For RRIRKRPPRLPRPRPRPEPKPRP, the “shrunken log2 fold change” value was 0.191.

RRIRKRPPRLPRPRPRPEPLPRP was tested, and the “shrunken log2 fold change” value was 0.636.

In the case of RRIRKRPPRLPRPRPRPEQEPRP, the “shrunken log2 fold change” value is reported as 0.408.

With RRIRKRPPRLPRPRPRPESHPRP the “shrunken log2 fold change” value was -0.00766.

With RRIRKRPPRLPRPRPRPETQPRP the “shrunken log2 fold change” value was -0.119.

In the case of RRIRKRPPRLPRPRPRPEWEPRP, the “shrunken log2 fold change” value is reported as 0.271.

For RRIRKRPPRLPRPRPRPEWLPRP, the “shrunken log2 fold change” value was 0.576.

RRIRKRPPRLPRPRPRPEWTPRP was tested, and the “shrunken log2 fold change” value was 0.0364.

For RRIRKRPPRLPRPRPRPEYAPRP, the “shrunken log2 fold change” value was -0.000279.

In the case of RRIRKRPPRLPRPRPRPEYMPRP, the “shrunken log2 fold change” value is reported as 0.264.

In the case of RRIRKRPPRLPRPRPRPEYYPRP, the “shrunken log2 fold change” value is reported as -0.053.

For RRIRKRPPRLPRPRPRPFCAPRP, the “shrunken log2 fold change” value was 0.588.

With RRIRKRPPRLPRPRPRPFCKPRP the “shrunken log2 fold change” value was 0.326.

With RRIRKRPPRLPRPRPRPFCMPRP the “shrunken log2 fold change” value was -0.115.

For RRIRKRPPRLPRPRPRPFDGPRP, the “shrunken log2 fold change” value was 0.23.

For RRIRKRPPRLPRPRPRPFEHPRP, the “shrunken log2 fold change” value was -0.0326.

With RRIRKRPPRLPRPRPRPFFDPRP the “shrunken log2 fold change” value was 0.112.

With RRIRKRPPRLPRPRPRPFGWPRP the “shrunken log2 fold change” value was 0.682.

For RRIRKRPPRLPRPRPRPFINPRP, the “shrunken log2 fold change” value was -0.148.

For RRIRKRPPRLPRPRPRPFKEPRP, the “shrunken log2 fold change” value was -0.0549.

With RRIRKRPPRLPRPRPRPFKRPRP the “shrunken log2 fold change” value was -0.00663.

RRIRKRPPRLPRPRPRPFLQPRP was tested, and the “shrunken log2 fold change” value was -0.0765.

RRIRKRPPRLPRPRPRPFMMPRP was tested, and the “shrunken log2 fold change” value was -0.1.

In the case of RRIRKRPPRLPRPRPRPFNIPRP, the “shrunken log2 fold change” value is reported as 0.186.

With RRIRKRPPRLPRPRPRPFPMPRP the “shrunken log2 fold change” value was 0.0227.

With RRIRKRPPRLPRPRPRPFPTPRP the “shrunken log2 fold change” value was 2.75.

In the case of RRIRKRPPRLPRPRPRPFQAPRP, the “shrunken log2 fold change” value is reported as 0.0945.

With RRIRKRPPRLPRPRPRPFQIPRP the “shrunken log2 fold change” value was 0.0332.

With RRIRKRPPRLPRPRPRPFQLPRP the “shrunken log2 fold change” value was 0.0661.

With RRIRKRPPRLPRPRPRPFRDPRP the “shrunken log2 fold change” value was 0.222.

With RRIRKRPPRLPRPRPRPFSKPRP the “shrunken log2 fold change” value was -0.0535.

For RRIRKRPPRLPRPRPRPFSLPRP, the “shrunken log2 fold change” value was -0.189.

With RRIRKRPPRLPRPRPRPFSVPRP the “shrunken log2 fold change” value was 0.034.

In the case of RRIRKRPPRLPRPRPRPFTLPRP, the “shrunken log2 fold change” value is reported as 0.0269.

RRIRKRPPRLPRPRPRPFVYPRP was tested, and the “shrunken log2 fold change” value was -0.014.

RRIRKRPPRLPRPRPRPFWQPRP was tested, and the “shrunken log2 fold change” value was 0.0521.

RRIRKRPPRLPRPRPRPFWSPRP was tested, and the “shrunken log2 fold change” value was -0.00917.

For RRIRKRPPRLPRPRPRPFYRPRP, the “shrunken log2 fold change” value was 0.0824.

For RRIRKRPPRLPRPRPRPGAEPRP, the “shrunken log2 fold change” value was 1.26.

In the case of RRIRKRPPRLPRPRPRPGASPRP, the “shrunken log2 fold change” value is reported as 0.787.

RRIRKRPPRLPRPRPRPGCYPRP was tested, and the “shrunken log2 fold change” value was 0.144.
